The text below walks through data of patent US20250199010A1.

In assay [1] the target is Mouse EGFR-Fc (mouse) (UniProt Q01279). As to the kind of experiment: SPR, 25 °C. (In SPR one partner is held on a chip, and binding of the other changes the refractive index at the surface.)
Assay [2] addresses human EGFR-Fc mutant (L325V, S340A) (human) (UniProt P00533). As to the kind of experiment: SPR (Biacore), 37 °C.
Assay [3] addresses Mouse EGFR-Fc (mouse) (UniProt Q01279). Kind of assay: SPR (Biacore), 25 °C.
In assay [4] the target is Human EGFR-Fc (human) (UniProt P00533). Kind of assay: yeast surface display titration with human EGFR (panel Yeast display: HuL6-7D12).
Assay [5] addresses Mouse EGFR-Fc (mouse) (UniProt Q01279). Kind of assay: SPR, murine EGFR-Fc.
Assay [6] concerns the target human EGFR-Fc mutant (L325V, S340A) (human) (UniProt P00533). Kind of assay: SPR, human EGFR-Fc (L325V, S340A).
Assay [7] concerns the target Mouse EGFR-Fc (mouse) (UniProt Q01279). As to the kind of experiment: SPR, murine EGFR-Fc; bracket from the bars of 7D12 and 9G8 to this bar.
The target of assay [8] is Human EGFR-Fc (human) (UniProt P00533). As to the kind of experiment: SPR (Biacore), 37 °C.

Usually Kd stands for the concentration at which binding is half-saturated. Regarding 7D12 (VHH), the Kd is 7200 nM with Mouse EGFR-Fc (mouse) [1], 210 nM in assay [2], 7200 nM in the assay with Mouse EGFR-Fc (mouse) [3] and 2.1 nM with Human EGFR-Fc (human) [4].

As for 7D12-(AP)12-9G8, the figures for the Kd (in the assay with Mouse EGFR-Fc (mouse) [5]; in assay [6]) were 192 nM and 0.6 nM, respectively. Besides, the k' with Mouse EGFR-Fc (mouse) [7] was determined as 950000.

Turning to 7D12-(AP)12-VSG-[-AA]9G8, the Kd with Mouse EGFR-Fc (mouse) [5] came to 0.7 nM; in assay [6], 0.04 nM.

Regarding 7D12-(E4K4)5-9G8, the results for the Kd (in the assay with Mouse EGFR-Fc (mouse) [5]; in assay [6]) were 621 nM and 2 nM, respectively.

Substance 7D12-(EAAAK)8-9G8 displayed a Kd with Mouse EGFR-Fc (mouse) [5] of 194 nM.

In the case of 7D12-(EAAAK)8-VSG-[-AA]9G8, the Kd with Mouse EGFR-Fc (mouse) [5] worked out at 1.2 nM.

In turn, 7D12-(GGGS)3-9G8 gave a dissociation constant Kd in the assay with Mouse EGFR-Fc (mouse) [5] of 162 nM.

As for 7D12-FFH-(EAAAK)6-GGG-[-AA]9G8, the Kd in the assay with Mouse EGFR-Fc (mouse) [5] is 8.8 nM.

For 7D12-KGR-(EAAAK)8-AGG-[-AA]9G8, the dissociation constant Kd in the assay with Mouse EGFR-Fc (mouse) [5] came to 17 nM.

7D12-SSV-(E4K4)4-GPG-[-AA]9G8 returned a Kd with Mouse EGFR-Fc (mouse) [5] of 3.1 nM.

Take 7D12-WMV-(GGGS)6-VTG-[-AA]9G8: the Kd was 1.2 nM in the assay with Mouse EGFR-Fc (mouse) [5] and 0.04 nM in assay [6].

For 9G8 (VHH), the Kd in the assay with Human EGFR-Fc (human) [8] is 3.8 nM; in assay [2], 13 nM.
